Experimental data published in the supplement of paper PMC7877785.
± gives the uncertainty stated by the source.

Test: self-splicing fitness, log relative to wild type (ln ratio); higher = more splicing; Tetrahymena group I intron in knt gene, E. coli kanamycin selection, DiMSum; sequences stand for … in CUCUCU…GGAGGGAAAAGUUAUCAGGCAUGCACCUGGUAGCUAGUCUUUAAACCAAUAGAUUGCAUCGGUUUAAAAGGCAAGACCGUCAAAUUGCGGGAAAGGGGUCAACAGCCGUUCAGUACCAAGUCUCAGGGGAAACUUUGAGAUGGCCUUGCAAAGGGUAUGGUAAUAAGCUGACGGACAUGGUCCUAACCACGCAGCCAAGUCCUAAGUCAACAGAUCUUCUGUUGAUAUGGAUGCAGUUCACAGACUAAAUGUCGGUCGGGGAAGAUGUAUUCUUCUCAUAAGAUAUAGUCGGACCUCUCCUUAAUGGGAGCUAGCGGAUGAAGUGAUGCAACACUGGAGCCGCUGGGAACUAAUUUGUAUGCGAAAGUAUAUUGAUUAGUUUUGGAGUACUCGUGGUCG
Procedure, shortened: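 DiMSum derived fitness as the error-weighted combination of fold changes across replicates, kanamycin versus no kanamycin, normalised to wild type. E. coli BL21(DE3) held the library, which randomised all eight P1ex-region intron nucleotides within the knt kanamycin-resistance gene on pET-22b(+). Six replicate transformations grew overnight at 37°C or 30°C on LB agar with or without 25 μg/mL kanamycin, also containing 100 μg/mL carbenicillin, 50 μM IPTG and 0.2% rhamnose, and pooled colonies were amplicon-sequenced on an Illumina HiSeq 2500.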

| Sequence | self-splicing fitness (ln) (30 °C) | self-splicing fitness (ln) (37 °C) |
| --- | --- | --- |
| GGCAAGCAAUAUUACGUUAG | -3.77 ± 0.2 | -2.57 ± 0.19 |
| GGCCAGCAAUAUUACGAACU | -0.359 ± 0.07 | -0.12 ± 0.079 |
| GGCCAGCAAUAUUACGACCU | -1.96 ± 0.19 | -0.345 ± 0.22 |
| GGCCAGCAAUAUUACGACGC | -1.02 ± 0.15 | 0.369 ± 0.17 |
| GGCCAGCAAUAUUACGAGAC | -3.29 ± 0.25 | -2.77 ± 0.28 |
| GGCCAGCAAUAUUACGAGCA | -0.969 ± 0.077 | -0.145 ± 0.084 |
| GGCCAGCAAUAUUACGAUAC | -2.04 ± 0.11 | -0.501 ± 0.13 |
| GGCCAGCAAUAUUACGAUGU | -2.4 ± 0.092 | -1.92 ± 0.12 |
| GGCCAGCAAUAUUACGCAAG | -3.48 ± 0.25 | -3.15 ± 0.43 |
| GGCCAGCAAUAUUACGCAUG | -2.27 ± 0.12 | -1.3 ± 0.14 |
| GGCCAGCAAUAUUACGCGCU |  | -1.76 ± 0.39 |
| GGCCAGCAAUAUUACGGAAC | -0.685 ± 0.1 | -0.981 ± 0.14 |
| GGCCAGCAAUAUUACGGACG | -0.421 ± 0.072 | 0.71 ± 0.1 |
| GGCCAGCAAUAUUACGGAUU | -0.639 ± 0.056 | -0.524 ± 0.063 |
| GGCCAGCAAUAUUACGUAUU | -2.14 ± 0.11 | -0.199 ± 0.087 |
| GGCCAGCAAUAUUACGUGAG | -2.13 ± 0.08 | -1.49 ± 0.092 |
| GGCCAGCAAUAUUACGUGGU | -3.49 ± 0.21 | -1.76 ± 0.2 |
| GGCCAGCAAUAUUACGUUAC | -2.01 ± 0.12 | -0.532 ± 0.15 |
| GGCCAGCAAUAUUACGUUGA | -2.04 ± 0.12 | -1.27 ± 0.12 |
| GGCGAGCAAUAUUACGACAA |  | -1.05 ± 0.34 |
| GGCGAGCAAUAUUACGACGG | -3.28 ± 0.38 | -3.37 ± 0.47 |
| GGCGAGCAAUAUUACGACUC | -0.185 ± 0.14 | 0.173 ± 0.24 |
| GGCGAGCAAUAUUACGCAGA | -3.15 ± 0.4 | -2.31 ± 0.23 |
| GGCGAGCAAUAUUACGCAGG | -2.43 ± 0.23 | -2.75 ± 0.33 |

| Sequence | self-splicing fitness (ln) (30 °C) | self-splicing fitness (ln) (37 °C) |
| --- | --- | --- |
| GGCGAGCAAUAUUACGGCAU | -0.523 ± 0.13 | 0.0629 ± 0.15 |
| GGCGAGCAAUAUUACGGGAA | -2.55 ± 0.3 | -1.74 ± 0.43 |
| GGCGAGCAAUAUUACGGGCG | -0.296 ± 0.12 | 0.0537 ± 0.14 |
| GGCGAGCAAUAUUACGGUCA | 0.0811 ± 0.15 | -0.103 ± 0.13 |
| GGCGAGCAAUAUUACGGUCU | -1.89 ± 0.2 | -1.03 ± 0.21 |
| GGCGAGCAAUAUUACGGUGA | -2.82 ± 0.089 | -1.39 ± 0.081 |
| GGCGAGCAAUAUUACGGUGC | -2.76 ± 0.16 | -1.86 ± 0.23 |
| GGCGAGCAAUAUUACGUAGU | -1.57 ± 0.13 | -0.422 ± 0.14 |
| GGCGAGCAAUAUUACGUGCC |  | -2.25 ± 0.45 |
| GGCGAGCAAUAUUACGUUCG | -3.74 ± 0.27 | -1.59 ± 0.3 |
| GGCGAGCAAUAUUACGUUUG | -2.31 ± 0.21 | -2.78 ± 0.38 |
| GGCUAGCAAUAUUACGAACU | -0.723 ± 0.25 | 0.433 ± 0.25 |
| GGCUAGCAAUAUUACGAGCG | -1.17 ± 0.14 | -0.288 ± 0.17 |
| GGCUAGCAAUAUUACGAUCU | -0.432 ± 0.1 | 0.129 ± 0.12 |
| GGCUAGCAAUAUUACGCAUG | -1.11 ± 0.11 | -1.04 ± 0.11 |
| GGCUAGCAAUAUUACGCAUU | -0.352 ± 0.074 | 0.553 ± 0.086 |
| GGCUAGCAAUAUUACGCCUG | -3.72 ± 0.29 | -1.95 ± 0.23 |
| GGCUAGCAAUAUUACGCGCG | -0.69 ± 0.14 | 0.174 ± 0.17 |
| GGCUAGCAAUAUUACGCUGC | -3.21 ± 0.19 | -2.65 ± 0.19 |
| GGCUAGCAAUAUUACGGAAG | -1.13 ± 0.11 | -0.386 ± 0.14 |
| GGCUAGCAAUAUUACGGACC | -1.67 ± 0.14 | -0.619 ± 0.2 |
| GGCUAGCAAUAUUACGGACU | -0.601 ± 0.081 | 0.198 ± 0.098 |
| GGCUAGCAAUAUUACGGAGC | -3.22 ± 0.22 | -2.25 ± 0.26 |
| GGCUAGCAAUAUUACGGAGG | -3.21 ± 0.26 | -1.58 ± 0.2 |

| Sequence | self-splicing fitness (ln) (30 °C) | self-splicing fitness (ln) (37 °C) |
| --- | --- | --- |
| GGCUAGCAAUAUUACGGAUC | -0.815 ± 0.23 | 0.314 ± 0.2 |
| GGCUAGCAAUAUUACGGCAA | 0.218 ± 0.07 | -0.682 ± 0.086 |
| GGCUAGCAAUAUUACGGCAC | 0.203 ± 0.13 | -0.036 ± 0.14 |
| GGCUAGCAAUAUUACGGGUA | -0.679 ± 0.12 | -0.368 ± 0.11 |
| GGCUAGCAAUAUUACGUAGG | -1.96 ± 0.14 | -1.78 ± 0.13 |
| GGCUAGCAAUAUUACGUAUA | -1.27 ± 0.22 | -0.659 ± 0.19 |
| GGCUAGCAAUAUUACGUCCU | -1.68 ± 0.1 | -1.3 ± 0.13 |
| GGCUAGCAAUAUUACGUUAG | -3.51 ± 0.32 | -0.919 ± 0.24 |
| GGCUAGCAAUAUUACGUUUA | -0.381 ± 0.15 | -0.882 ± 0.16 |
| GGGAAGCAAUAUUACGAAAU | -3.24 ± 0.19 | -2.26 ± 0.22 |
| GGGAAGCAAUAUUACGACAC | -0.539 ± 0.25 | 0.0269 ± 0.38 |
| GGGAAGCAAUAUUACGAGCU | -0.998 ± 0.29 | -0.3 ± 0.36 |
| GGGAAGCAAUAUUACGAUCA | -0.768 ± 0.33 | -0.0795 ± 0.35 |
| GGGAAGCAAUAUUACGAUGU | -1.02 ± 0.083 | -0.0643 ± 0.1 |
| GGGAAGCAAUAUUACGCCCA | -0.527 ± 0.15 | -0.717 ± 0.21 |
| GGGAAGCAAUAUUACGCGAC | -2.77 ± 0.37 | -1.5 ± 0.32 |
| GGGAAGCAAUAUUACGGAAG | -0.00595 ± 0.22 | -1.47 ± 0.39 |
| GGGAAGCAAUAUUACGGCAC | 0.0244 ± 0.3 | -0.976 ± 0.36 |
| GGGAAGCAAUAUUACGGCCG | -0.164 ± 0.12 | -0.0913 ± 0.15 |
| GGGAAGCAAUAUUACGGUAC | -1.47 ± 0.25 | -1.08 ± 0.27 |
| GGGAAGCAAUAUUACGUCGA | -0.874 ± 0.12 | -0.739 ± 0.13 |
| GGGAAGCAAUAUUACGUCGU | -0.671 ± 0.16 | -0.462 ± 0.16 |
| GGGAAGCAAUAUUACGUGAC | -1.99 ± 0.18 | 0.336 ± 0.21 |
| GGGAAGCAAUAUUACGUGUG | -1.15 ± 0.097 | -1.24 ± 0.13 |

| Sequence | self-splicing fitness (ln) (30 °C) | self-splicing fitness (ln) (37 °C) |
| --- | --- | --- |
| GGGAAGCAAUAUUACGUUUC | -3.58 ± 0.19 | -2.19 ± 0.29 |
| GGGCAGCAAUAUUACGAACC | -0.749 ± 0.29 | -0.806 ± 0.31 |
| GGGCAGCAAUAUUACGAAGU | -1.95 ± 0.14 | -0.794 ± 0.21 |
| GGGCAGCAAUAUUACGACCU | -1.88 ± 0.28 | -1.26 ± 0.44 |
| GGGCAGCAAUAUUACGAUAG | -3.54 ± 0.2 | -2.43 ± 0.22 |
| GGGCAGCAAUAUUACGCCAG | -2.02 ± 0.1 | -0.684 ± 0.13 |
| GGGCAGCAAUAUUACGCCUC |  | -1.42 ± 0.31 |
| GGGCAGCAAUAUUACGCUCA | -1.09 ± 0.094 | -0.272 ± 0.16 |
| GGGCAGCAAUAUUACGCUGU | -2.65 ± 0.29 | -1.21 ± 0.21 |
| GGGCAGCAAUAUUACGGCGG | -1.76 ± 0.12 | -1.99 ± 0.17 |
| GGGCAGCAAUAUUACGGGAA | -2.67 ± 0.31 | -2.7 ± 0.32 |
| GGGCAGCAAUAUUACGGUAA | -1.69 ± 0.27 | -0.663 ± 0.19 |
| GGGCAGCAAUAUUACGGUCG | -0.993 ± 0.076 | -0.0756 ± 0.12 |
| GGGCAGCAAUAUUACGGUGA | -0.844 ± 0.074 | -0.671 ± 0.088 |
| GGGCAGCAAUAUUACGGUUA | -0.537 ± 0.097 | -0.339 ± 0.089 |
| GGGCAGCAAUAUUACGGUUU | -0.465 ± 0.065 | -0.681 ± 0.071 |
| GGGCAGCAAUAUUACGUACC | -1.88 ± 0.31 | -1.39 ± 0.48 |
| GGGCAGCAAUAUUACGUCUU | -0.531 ± 0.081 | 0.0306 ± 0.098 |
| GGGCAGCAAUAUUACGUGGA | -2.81 ± 0.11 | -1.62 ± 0.099 |
| GGGCAGCAAUAUUACGUGGU | -2.88 ± 0.17 | -1.58 ± 0.13 |
| GGGCAGCAAUAUUACGUUGC | -3.77 ± 0.16 | -1.95 ± 0.19 |
| GGGCAGCAAUAUUACGUUUU | -0.77 ± 0.046 | 0.221 ± 0.063 |
| GGGGAGCAAUAUUACGAGCG | -2.37 ± 0.25 | -1.53 ± 0.22 |
| GGGGAGCAAUAUUACGAUAU | -2.95 ± 0.4 | -0.987 ± 0.24 |
